Laboratory results from patent US20220291215A1.

Assays:
[1] = target: DP4/MAGE-A3243-258 TCR, clone R12C9
[2] = target: DP4/MAGE-A3243-258 TCR, clone R12C9; remark: listed apart in the source

## Control (peptide-MHC)
[1]
  % dimer+ CD4+ cells: 0.4%
[2]
  % dimer+ Vβ22+ cells: 0.1%
